The assay has as its target CMP-Pse5Ac7Ac synthetase PseF from Aeromonas caviae (Aeromonas caviae). Kind of assay: SEC-MALS; 100 uL of AcPseF at 4 mg/mL on a Superdex S200 column in 20 mM Tris pH 7.8, 50 mM NaCl, 2 mM MgCl2; Wyatt HELEOS-II light scattering and rEX refractive index detectors; BSA as standard. (In general: SEC sorts molecules by how far they enter the pores of the column.)

In publication PMC7910423 one finds percent present as homodimer and stoichiometry N data, which are given here for 1 substance.

For the substance “CMP-Pse5Ac7Ac synthetase PseF from Aeromonas caviae (enzyme)”, the percent present as homodimer is over 99% and the stoichiometry N (usually the number of molecules, sites or subunits per partner or assembly) is 2.
